According to the supplement of paper PMC9170038:

These sequences were tested on MS2 coat protein (assay: apparent KD of MS2 coat protein; higher = weaker reporter binding). Details: Eterna round: R107; input ligand: arginine 13.2 mM.
How it was run: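 In 100 mM Tris-HCl pH 7.5 with 80 mM KCl and 4 mM MgCl2, and without or with constant ligand, SNAP-549-labelled MS2 coat protein was titrated in twofold steps from 0.7 or 1.5 nM to 3 µM. Per-step times went from 0.8–1.5 h down to 10–20 min. The RNA switches were transcribed on-chip from Illumina sequencing clusters, and apparent KD is the per-design median of normalised cluster binding-curve fits.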

Sequence | apparent KD of MS2 coat protein
AGCGGCUCGAAAGAGUCGCACUCAUGUGAAGGAGCGCCCGUUAGGGCAGGUAGGUCGCACAUGAGGAUCACCCAUGUACCUUCUA [MAT - Exclusion Arginine A - Mod of Eli - D19] | 53.1 nM
AAACAUUGCUCAGAUACCAGACAUGAGGAUCACCCAUGUACCAAGGUACCCGAAAGGAAUGUCCCUUGGCAGCUGAGCAAUGAAA [MAT - Exclusion Theophlline B - Mod of Eli - D20] | 10.9 nM
GUGGAGACACGAGAUACCAGUCUCUAUAACAUGAGGAUCACCCAUGUAAUGCUCCUCAGGGACCCUUGGCAGCUCAGUAUGAUGA [Exclusion - Theophylline B] | 34.8 nM
ACAUGAGGAUCACCCAUGUGCAUCACCCGACGAGGACCGGUACGGCCGCCACUCGGGUAUAUAUUUACAUCGGGUGAUUUUACGU [#24 Tryptophan A Same State] | 29.1 nM
AGCCGGAUUACGGCCGCCACUGUAGACGUGACGAAAGUCGCGUCAACAUGAGGAUCACCCAUGUACAGGACCGGGUGGUCAGGCG [Omei Tryp B SS A v4] | 108 nM
CCCUCGUCAACGGCCGCCACUGUGAUUCACUAAGAUAAUAUUGCACAUGAGGAUCACCCAUGUCUCAGGACCGGGUUGGUGUGUC [theeternabot_sameState_MS2_Trp_B_38] | 82 nM
GGUAUGUAUUCGGAAACGAAUGCAUACCAACGAGGACCGGUACGGCCGCCACUCGGCCGUGAUCAACAUGAGGAUCACCCAUGUA [Ex Tryptophan A 6] | 16.3 nM
UGAUGGUGCUGAAGGAGCGUGUAAGAACAAGAACAUGAGGAUCACCCAUGUAUUAAUUUAACACAGGUAGGUCGCGGUGUUAUUG [11.L] | 30.5 nM
ACAUGAGGAUCACCCAUGUGGCGACUUGAUACCAGACCCGCACUAGUCCCUUGGCAGCAACUACGUGUGGGACACCCAUGUUAAG [lplmullin] | 17.3 nM
AGCUCGCUUCCUCAAGCGUCAAAGACGCGUCGAGGACCGGUACGGCCGCCACUCGACCUGAGGAUCACCCGGGUCUAAGCGAGCA [TrypAX 8 #SwitchBubble #AlternativeMS2 #MS2Late #CuTurnoff] | 45.8 nM
AUGUCGUUGAAUAUAGCGGCUUGGUGUGAUACCAGAAUGAUCUAAUUCCCUUGGCAGCAUUACAUGAGGAUCACCCAUGUUCAGG [SSTheo A #20] | 22 nM
AUUUAUUAGACGGCCGCCACUUGAAAGAGACCUCAUAAAUGGGAACAUGAGGAUCACCCAUGUAAGAGGACCGGGUCUAGUAGAU [TryptB-ms2@45] | 55.2 nM
AAUUUUCACGGAAGGAGCGUCACGUAAUUCAUACAUGAGGAUCACCCAUGUUAGUGGUAGAGACAGGUAGGUCGCCGUUAUUUGA [JR_AAArginiB_Sub026] | 14.3 nM
AGACAUGAGGAUCACCCAUGUAGCAUGGAUACCAGAUGUAGAUUUGUCCCUUGGCAGCUGUGGUAAAGUGAUGCAUUGCUCCUAG [Exclusion - Theophylline A (Freestyle 4)] | 34.4 nM
AUAAUAGGGAUAAUUAGUUUUAGGUCCAGUCGAGGACCGGUACGGCCGCCACUCGUACAGAAAUACAUGAGGAUCACCCAUGUUA [JR_SSTryptoA_Sub005] | 14 nM
UGGUGUAGGGUAAAUAGGCUGAGUACAGAAGGAGCGCGAAUAAACGCAGGUAGGUCGCUGGACUCCACAUGAGGAUCACCCAUGU [Same State Arginine A GF 28] | 35.5 nM
ACAUGAGGAUCACCCAUGUAUGAUGUUCCUCGAGGACCGGUACGGCCGCCACUCGAACGAGUGGCACGCGAGUGCGCACUCGCGU [aXa] | 22.1 nM
AGCCUCAUACAUGAGGAUCACCCAUGUGAUACCAGUCAGGAAACUGACCCUUGGCAGCGCAUGAGGAUCACCCAUGUGCGAGGCA [Omei Theo A Exc A v2] | 25.1 nM

Sequence | apparent KD of MS2 coat protein
UCACUCUGGGUGAAUUCCGGAGAUGUGGAAGGAGCGGACGAAAGUCCAGGUAGGUCGCCAUCGGACAUGAGGAUCACCCAUGUAC [Same State - Arginine A (Freestyle 23)] | 71.8 nM
AAUAAUAAGGCGGCCGCCACUAAACAUGAGGAUCACCCAUGUCUCGAGGGCUUGCGUUUGGGAAGUAGGACCGGGCCAAUAAUAA [Exclusion - Tryptophan B (Freestyle 6)] | 12.6 nM
UCCUACACGGAGACGUGUAGGAGUAAUGAUACCAGCAUGGAGACAUGCCCUUGGCAGCGUUACAUGAGGAUCACCCAUGUGGUGC [ETHA #7] | 14.7 nM
GAUGAACUAUUUGAUACCAGACUACAUGAGGAUCACCCAUGUGUGUUUAUACUUCUGUCAGUCCCUUGGCAGCAAAUAGUUUAUC [XTheo B #4] | 47.3 nM
AAAGGUCGGACGGCCGCCACUGGCUAGGUGGGUUCCGGGAUUACAUGAGGAUCACCCAUGUAUACCAGGACCGGGUUCGCCUCGU [Lageonor] | 9.51 nM
CUAUGCAGGUCGGCCGCCACUACACACAUGAGGAUCACCCAUGUAGUUACUGGGUGAAGUGGCAGUAGGACCGGGACCUGCACAC [Brourdmod18] | 150 nM
UGUAACAUGAGGAUCACCCAUGUAAGUGAUACCAGAUAAGUAGUAGUCCCUUGGCAGCAUAUUGGGAAAGUGUAUAGUCUAUACG [Same State - Theophylline A (Freestyle 5)] | 50 nM
UUAAUCAUGUUAGAAAACUAAUAUGCAGAAGGAGCGUGAUAAAACACAGGUAGGUCGCUGAAGGGAACAUGAGGAUCACCCAUGU [AstrosSSArgA#9] | 42.8 nM
UACAAACAUGAGGAUCACCCAUGUAGUGAUACCAGCAUAACAGAUUGCCCUUGGCAGCACCGGUUUGUACUCAAACGAAGUACGG [theeternabot_sameState_MS2_Theo_A_36] | 56 nM
GAUGAACUAUGUGAUACCAGACAACAUGAGGAUCACCCAUGUGCGCGUCGUCCUCUGCCUGUCCCUUGGCAGCGUAUAGUUUAUC [XTheo B #13] | 77.9 nM
UAAAUAAUCUGGGUGUAGGUAAUAACAGAUACCAGCCAGAUAACUGGCCCUUGGCAGCUGAUAACAUGAGGAUCACCCAUGUAAA [Mat - Same State Theophlline A - Mod of Eli - D20] | 47 nM
AAAAUCCUACCUGAGGAUCACCCAGGUGAAGGAGCGCCCGAAAGGGCAGGUAGGUCGCACCUGAGGAUCACCCUGGUAACCUAAA [ArgEX 11 #DoubleMS2 #OpenEnded #AlternativeMS2] | 28.1 nM
ACAUGAGGAUCACCCAUGUAAAUAACGGAAGGAGCGUGCAAAAGCACAGGUAGGUCGCCGAUAUAAAUAUUGGGUAUUAUAUUAU [AstrosExyArgA#2] | 23.9 nM
CCGACGAUGACUAUGGGUCAGGAGUGCGCACGAGGACCGGUACGGCCGCCACUCGAGGAGUGGGACAUGAGGAUCACCCAUGUGG [X-TryptA-MS2@65] | 31.5 nM
UGAGUUAGACAAAAGUCUAGCUCUGGUGAAGGAGCGUCCGAAAGGACAGGUAGGUCGCACCACCUGAGGAUCACCCAGGUUCCUA [ArgAS 14 #OpenEnded #AlternativeMS2] | 28.5 nM
GUGAAGUUAGUGAGCGUUAGUCAAGCCAAACGAGGACCGGUACGGCCGCCACUCGCGCAUCGACAUGAGGAUCACCCAUGUGCCG [theeternabot_exclusion_MS2_Trp_A_12] | 18.4 nM
UAUAAAAUAACAGAUACCAGCGUGUUAUAAAACAUGAGGAUCACCCAUGUAGUGAUCAAGCGCCCUUGGCAGCUGGUAUUUUAUA [7.B] | 97.2 nM
AUAAGUAAUGUUUCGUGUAUUAUUACAGAUACCAGACUAUCCUAUGUCCCUUGGCAGCUGGAUUACAUGAGGAUCACCCAUGUUG [JR_ExcTheophyA_Sub001] | 15.7 nM
